Experiments:
human SIRPα variant 2 = target: T1, human SIRPα variant 2 (human, UniProt P78324 31-504); experiment: CELISA, CHO-K1 transfectants; average of two experiments
T1 construct: full length ORF on transfected CHO-K1 cells; also called hSIRPαV2; SIRPαV2
Experimental: (§1) Binding of the humanized antibodies to hSIRPα was studied in CELISA format. Binding of the hSIRPα antibodies to human SIRPαV1, SIRPαV2, hSIRPβ1, and hSIRPγ was confirmed using CHO-K1 cells that had been transiently transfected with cDNA encoding the full length open reading frame of each of these respective targets subcloned into the pCI-neo vector. CHO-K1.hSIRPαV1, CHO-K1.hSIRPαV2, CHO-K1.hSIRPβ1, and CHO-K1.hSIRPγ cells were seeded in culture medium (DMEM-F12 (Gibco) supplemented with 5% New Born Calf Serum (BioWest) and Pen/Strep (Gibco)) in 96-well flat-bottom tissue culture plates and incubated at 37° C., 5% CO₂ and 95% humidity until cell layers were confluent. Subsequently, culture medium was removed and cells were incubated for 1 hour at 37° C., 5% CO₂ and 95% humidity with purified hSIRPα antibodies (10 μg/mL and dilutions thereof). Next, cells were washed with PBS-T and incubated for 1 hour at 37° C., 5% CO₂ and 95% humidity with goat-anti-human IgG-HRP conjugate (Jackson Immuno Research) or goat-anti-mouse IgG-HRP (Southern Biotech). Subsequently, cells were washed three times with PBS-T and anti-hSIRPα immunoreactivity was visualized with TMB Stabilized Chromogen (Invitrogen). Reactions were stopped with 0.5 M H₂SO₄ and absorbances were read at 450 and 610 nm. […] In Table 13 the EC50 values of the humanized hSIRPα antibodies are depicted.
(§2) Table 13: Binding of humanized and parental hSIRPα.50A antibodies to CHO-K1.hSIRPαV1, CHO-K1.hSIRPαV2, CHO-K1.hSIRPβ1, and CHO-K1.hSIRPγ cells.

human SIRPα variant 1 = target: T2, human SIRPα variant 1 (human, UniProt P78324 31-504); experiment: as above
T2 construct: full length ORF on transfected CHO-K1 or HEK293 cells; entry includes the signal peptide; also called hSIRPαV1; SIRPαV1
Experimental: as §1, §2

human SIRPβ1 = target: T3, human SIRPβ1 (human, UniProt O00241 30-398); experiment: CELISA, CHO-K1 transfectants; nd = not detected
T3 construct: also called hSIRPβ1
Experimental: as §1, §2

human SIRPγ = target: T4, human SIRPγ (human, UniProt Q9P1W8 29-387); experiment: CELISA, CHO-K1 transfectants; extrapolated
T4 construct: on transfected CHO-K1 cells; also called hSIRPγ
Experimental: as §1, §2

T4 sequence (Q9P1W8 29-387 limits assumed): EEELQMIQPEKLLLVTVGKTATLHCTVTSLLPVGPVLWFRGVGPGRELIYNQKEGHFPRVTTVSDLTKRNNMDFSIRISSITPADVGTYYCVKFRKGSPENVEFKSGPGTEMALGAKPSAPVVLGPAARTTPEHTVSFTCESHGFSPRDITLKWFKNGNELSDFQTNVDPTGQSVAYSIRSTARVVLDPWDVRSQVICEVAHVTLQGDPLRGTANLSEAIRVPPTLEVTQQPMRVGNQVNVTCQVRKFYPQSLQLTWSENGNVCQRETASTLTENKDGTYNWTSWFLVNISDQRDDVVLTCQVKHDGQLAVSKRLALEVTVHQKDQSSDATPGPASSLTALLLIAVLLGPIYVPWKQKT
T3 sequence (O00241 30-398 limits assumed): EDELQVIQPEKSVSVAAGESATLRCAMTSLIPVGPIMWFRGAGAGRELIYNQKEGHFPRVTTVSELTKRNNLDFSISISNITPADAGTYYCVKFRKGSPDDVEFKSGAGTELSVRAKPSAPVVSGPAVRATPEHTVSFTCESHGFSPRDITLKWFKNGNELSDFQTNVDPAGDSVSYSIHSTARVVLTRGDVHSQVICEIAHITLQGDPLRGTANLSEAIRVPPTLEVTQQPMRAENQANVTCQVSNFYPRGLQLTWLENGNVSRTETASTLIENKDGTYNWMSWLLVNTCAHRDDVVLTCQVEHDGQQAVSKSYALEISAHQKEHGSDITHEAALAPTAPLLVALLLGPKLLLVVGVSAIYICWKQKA
T2 sequence (P78324 31-504 limits assumed, change not shown): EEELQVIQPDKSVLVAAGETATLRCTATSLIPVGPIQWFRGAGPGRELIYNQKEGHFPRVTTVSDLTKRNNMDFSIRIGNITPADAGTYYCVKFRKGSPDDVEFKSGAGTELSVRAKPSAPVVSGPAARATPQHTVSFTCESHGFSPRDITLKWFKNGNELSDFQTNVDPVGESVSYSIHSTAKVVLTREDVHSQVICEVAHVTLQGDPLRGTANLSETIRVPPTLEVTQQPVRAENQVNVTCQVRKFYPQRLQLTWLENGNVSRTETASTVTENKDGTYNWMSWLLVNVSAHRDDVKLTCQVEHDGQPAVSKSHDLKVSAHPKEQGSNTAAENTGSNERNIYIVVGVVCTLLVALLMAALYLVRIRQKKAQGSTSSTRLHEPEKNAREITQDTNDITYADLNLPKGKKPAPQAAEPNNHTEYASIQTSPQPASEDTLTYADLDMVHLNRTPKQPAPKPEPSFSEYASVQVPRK
T1 sequence (P78324 other isoform, or with tags, fused parts or gaps mutant limits assumed): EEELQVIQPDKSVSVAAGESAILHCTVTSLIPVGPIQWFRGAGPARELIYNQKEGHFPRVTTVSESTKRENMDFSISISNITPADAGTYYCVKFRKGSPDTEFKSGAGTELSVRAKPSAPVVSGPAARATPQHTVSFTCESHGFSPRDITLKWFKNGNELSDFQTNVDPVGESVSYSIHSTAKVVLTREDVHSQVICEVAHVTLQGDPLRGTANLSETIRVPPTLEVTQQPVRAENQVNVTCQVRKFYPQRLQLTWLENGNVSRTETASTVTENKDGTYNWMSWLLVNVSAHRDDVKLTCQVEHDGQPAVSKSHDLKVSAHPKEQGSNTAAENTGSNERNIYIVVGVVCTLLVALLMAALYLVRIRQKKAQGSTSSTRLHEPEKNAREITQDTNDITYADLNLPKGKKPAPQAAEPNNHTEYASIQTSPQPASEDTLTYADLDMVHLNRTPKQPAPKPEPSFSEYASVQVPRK

| Binder | EC50 (human SIRPα variant 2) [nM] | EC50 (human SIRPα variant 1) [nM] | EC50 (human SIRPγ) [nM] | binding result (human SIRPβ1) |
| --- | --- | --- | --- | --- |
| hSIRPα.50A.H1L2 (antibody, human IgG4 S228P, kappa, V domains shown, human IgG4 S228P, kappa; also called hSIRPα.50H1L2) VH: EVQLQQSGAEVVKPGASVKVSCKASGFTFTNYYIHWVRQAPGQGLEWIGWIYPGNVNTKYNEKFKARVTITADKSTSTAYMDLSSLRSEDTAVYYCARPTIIATDFDVWGQGTTVTVSS VL: DIVMTQSPSSLSASVGDRVTITCKASQGVGTAVGWYQQKPGKAPKLLIYWASTRHTGVPDRFSGSGSGTDFTLTISNLQPEDFADYYCQQYSTYPFTFGGGTKVEIKR | 0.816 | 0.781 | 1.26 | no binding (tested: 10 µg/mL and dilutions thereof) |
| hSIRPα.50A.H4L2 (antibody, human IgG4 S228P, kappa, V domains shown, human IgG4 S228P, kappa; also called hSIRPα.50H4L2) VH: EVQLQQSGAELVKPGASVKVSCKASGFTFTNYYIHWVRQRPGQGLEWMGWIYPGNVNTKYNEKFKAKATITADKSTSTAYMELSSLTSEDTAVYYCARPTIIATDFDVWGQGTTVTVSS VL: DIVMTQSPSSLSASVGDRVTITCKASQGVGTAVGWYQQKPGKAPKLLIYWASTRHTGVPDRFSGSGSGTDFTLTISNLQPEDFADYYCQQYSTYPFTFGGGTKVEIKR | 0.651 | 0.737 | 0.871 | no binding (tested: 10 µg/mL and dilutions thereof) |
| hSIRPα.50A.H1L4 (antibody, human IgG4 S228P, kappa, V domains shown, human IgG4 S228P, kappa; also called hSIRPα.50H1L4) VH: EVQLQQSGAEVVKPGASVKVSCKASGFTFTNYYIHWVRQAPGQGLEWIGWIYPGNVNTKYNEKFKARVTITADKSTSTAYMDLSSLRSEDTAVYYCARPTIIATDFDVWGQGTTVTVSS VL: DIQMTQSPSSLSASVGDRVTITCKASQGVGTAVGWYQKKPGKVPKLLIYWASTRHTGVPDRFSGSGSGTDFTLTINGLQPEDVATYYCQQYSTYPFTFGGGTKLEIKR | 1.62 | 1.49 | 7.43 | no binding (tested: 10 µg/mL and dilutions thereof) |
| hSIRPα.50A.H3L2 (antibody, human IgG4 S228P, kappa, V domains shown, human IgG4 S228P, kappa; also called hSIRPα.50H3L2) VH: EVQLVQSGAEVVKPGASVMISCKASGFTFTNYYIHWVRQRPGQGLEWIGWIYPGNVNTKYNEKFKARVIMTADKSTSTVYMQLSSLTSEDTAVYYCARPTIIATDFDVWGQGTLVTVSS VL: DIVMTQSPSSLSASVGDRVTITCKASQGVGTAVGWYQQKPGKAPKLLIYWASTRHTGVPDRFSGSGSGTDFTLTISNLQPEDFADYYCQQYSTYPFTFGGGTKVEIKR | 0.999 | 1.05 | 1.5 | no binding (tested: 10 µg/mL and dilutions thereof) |

Now from value to binder, other results behind:

| EC50 (human SIRPα variant 2) [nM] | EC50 (human SIRPα variant 1) [nM] | EC50 (human SIRPγ) [nM] | Binder | binding result (human SIRPβ1) |
| --- | --- | --- | --- | --- |
| 0.848 | 0.962 | 1.01 | hSIRPα.50A.H1L5 (antibody, human IgG4 S228P, kappa, V domains shown, human IgG4 S228P, kappa; also called hSIRPα.50H1L5) VH: EVQLQQSGAEVVKPGASVKVSCKASGFTFTNYYIHWVRQAPGQGLEWIGWIYPGNVNTKYNEKFKARVTITADKSTSTAYMDLSSLRSEDTAVYYCARPTIIATDFDVWGQGTTVTVSS VL: DIVLTQSPSFLSASVGDRVTITCKASQGVGTAVGWYQQKPGKSPKLLIYWASTRHTGVPDRFSGSGSGTEFTLTISNLQPEDFAAYYCQQYSTYPFTFGGGTKLEIKR | no binding (tested: 10 µg/mL and dilutions thereof) |
| 1.11 | 1.09 | 2.58 | hSIRPα.50A.H1L3 (antibody, human IgG4 S228P, kappa, V domains shown, human IgG4 S228P, kappa; also called hSIRPα.50H1L3) VH: EVQLQQSGAEVVKPGASVKVSCKASGFTFTNYYIHWVRQAPGQGLEWIGWIYPGNVNTKYNEKFKARVTITADKSTSTAYMDLSSLRSEDTAVYYCARPTIIATDFDVWGQGTTVTVSS VL: ELVMTQSPSSLSASVGDRVTITCKASQGVGTAVGWYQQKPGKAPKLLIYWASTRHTGVPDRFSGSGSGTDFTLAISSLQPEDIADYYCQQYSTYPFTFGGGTKVEIKR | no binding (tested: 10 µg/mL and dilutions thereof) |
| 0.864 | 0.883 | 1.49 | hSIRPα.50A.H1L1 (antibody, human IgG4 S228P, kappa, V domains shown, human IgG4 S228P, kappa; also called hSIRPα.50H1L1) VH: EVQLQQSGAEVVKPGASVKVSCKASGFTFTNYYIHWVRQAPGQGLEWIGWIYPGNVNTKYNEKFKARVTITADKSTSTAYMDLSSLRSEDTAVYYCARPTIIATDFDVWGQGTTVTVSS VL: DIVLTQSPSFLSASVGDRVTITCKASQGVGTAVGWYQQKPGKAPKLLIYWASTRHTGVPDRFSGSGSGTEFTLTISSLQPEDFAAYYCQQYSTYPFTFGGGTKLEIKR | no binding (tested: 10 µg/mL and dilutions thereof) |
